For 55 substances, amyloid nucleation score results are on record in the supplement of paper PMC12042874.

± gives the uncertainty stated by the source.

The series in a line: amyloid nucleation score (Sup35N fusion, yeast selection) (log enrichment); library NNK3; higher = more nucleation; inactive = no reads after selection. The method, boiled down: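 Random libraries were run with three technical output replicates. In each, psi-negative yeast expressing Sup35N fused to peptides of 20 random codons were induced 24 hours with 100 μM copper sulfate and grown 7 days at 30°C on medium lacking adenine and uracil, and input and output plasmid inserts were Illumina-sequenced. The nucleation score is the DiMSum log enrichment of output over input reads, centred on the mode score of non-aggregating sequences, and sequences under 100 input reads were excluded.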
WQYLNFS gave an amyloid nucleation score of 0.75 ± 0.29. With WRACHSRSSVVNWISLPDYS, the amyloid nucleation score entry was “inactive”.

As to WRFRPVVYQRRPY, the amyloid nucleation score result is “inactive”. In the case of WRLVLLHW it was “inactive”; in that of WRQVL, “inactive”; in that of WRRMTEPMSAKGLTNYLEST, “inactive”. Under WRVADTTEARMTGWGVWQWY stands “inactive”.

Turning to WRVLKADDYFFFWWASCFAY, the amyloid nucleation score entry was “inactive”. In the case of WSAECLFLVWRIHSML it was “inactive”. In the case of WSCNN it was “inactive”. Regarding WSDQTDRAGHFAVFNLSMGY, the amyloid nucleation score entry was “inactive”. Turning to WSEHGQWMYNRLCGSGFISH, the amyloid nucleation score entry is “inactive”. In the case of WSFCVSTREGSSNNFSRCGK it was “inactive”; in that of WSKDG, “inactive”. In the case of WSMSSVTYNSVCSCGSWCE it was 1.87 ± 0.091; in that of WSQEATTM, “inactive”; in that of WSRMTKSHKCRWDQLVTVHG, “inactive”. WTLFWNPLI: the amyloid nucleation score result is “inactive”.

As for WTMVSGDALTCYTMTTMVRR, the amyloid nucleation score result is “inactive”. In the case of WTRCRLTDFYHSGMSYHHSG it was “inactive”; in that of WTRGNRHVVLQLLGQVSF, “inactive”. On to WTTNLVNAYLDRHVHNLMPL, for which the amyloid nucleation score entry is “inactive”.

For WVGLCFLRFQVHSTSDESVS, the amyloid nucleation score entry is “inactive”. Under WVNKEDESVVWYIWFGIECC stands “inactive”; under WVVEQVDLLSGMVIGLKNSR, “inactive”. Under WVVWEM stands “inactive”. Turning to WWSCGILSKPFFWYISRTF, the amyloid nucleation score entry is “inactive”.

Consider WWSKVMYRSTPTLNAFKDRQ, for which the amyloid nucleation score entry is “inactive”. Under WYFWVFCSFKLENCAPVNQW stands “inactive”. With WYHVSHVYYGVGIGLRD, the amyloid nucleation score result is “inactive”. In the case of WYIVTNR it was “inactive”; in that of WYYQVKMISVCSLIEGMWTS, “inactive”; in that of YAARNWIVQVD, “inactive”. In the case of YADRRIFSVS it was “inactive”.

Regarding YAIAAYFDKRRIVGWVINCS, the amyloid nucleation score entry was “inactive”.

In the case of YAKCSDVY, the amyloid nucleation score entry is “inactive”.

On to YALYCVFTGNSWQSVLRHRY, for which the amyloid nucleation score amounted to 1.32 ± 0.095.

For YASFTK, the amyloid nucleation score entry was “inactive”. Turning to YAWLCAASRYKTMVESLAEF, the amyloid nucleation score result is “inactive”. Under YAYVQRVYLACSINLMCLWY stands “inactive”. In the case of YCCTLVTRCSVMNTL it was 2.46 ± 0.065; in that of YCFICVDSIAL, 2.27 ± 0.072.

Take YCGEYYITGNMRLPLSTPSG: the amyloid nucleation score entry is “inactive”. In the case of YCGTY, the amyloid nucleation score result is “inactive”. Take YCGWLCSSPPVQNV: the amyloid nucleation score entry is “inactive”. Regarding YCIRVVVWYNRHYGYSLS, the amyloid nucleation score entry was “inactive”. In the case of YCLKLLGGFC it was 0.657 ± 0.27; in that of YCMGYSMHIV, “inactive”. Under YCMVKL stands “inactive”; under YCRCLCMLYG, “inactive”; under YCVSMANKLTCLCKGNSYPN, 2.4 ± 0.061.

As for YCVYQWLSYSVCLFNLMECT, the amyloid nucleation score result was “inactive”.

Take YCYAMS: the amyloid nucleation score result is “inactive”. In the case of YCYLGG it was -0.36 ± 0.8; in that of YDCCMLHWIVFGGIVDGMCL, “inactive”.
